We go through four substances from publication PMC11424739.

Broadly, the Km is the substrate concentration at which the rate is half of its maximum. The term kcat denotes the maximal rate divided by the concentration of active sites. Usually kcat/Km stands for the second-order rate constant that governs catalysis at low substrate concentration.

The subject of this data set is CC(C)CC1CC(=O)NC(=O)C1. As to the kind of experiment: purified protein. In kind it is biochemical, Paraburkholderia phytofirmans. The note with it: 50 mmol L^-1 Tris-HCl pH 8.0, 40 °C, IBI 0.10-2.0 mg mL^-1.
As to “BpIH (Paraburkholderia phytofirmans PsJN; S226L)”, the Michaelis-Menten constant (Km) is 9.28 ± 1.09 mM, the catalytic constant (kcat) amounted to 0.0517 ± 0.00617 s⁻¹ and the catalytic efficiency (kcat/Km) was determined as 5.47 M⁻¹ s⁻¹.

In the case of “BpIH (Paraburkholderia phytofirmans PsJN; H133N/S226I/Y37F)”, the Km was determined as 7.31 ± 0.73 mM, the catalytic constant (kcat) is 0.0573 ± 0.005 s⁻¹ and the catalytic efficiency (kcat/Km) amounted to 7.82 M⁻¹ s⁻¹.

Consider “BpIH (Paraburkholderia phytofirmans PsJN)”, for which the Km was 9.02 ± 0.51 mM, the turnover number (kcat) came to 0.00967 ± 0.0075 s⁻¹ and the kcat/Km came to 1.07 M⁻¹ s⁻¹.

“BpIH (Paraburkholderia phytofirmans PsJN; H133N/S226L/Y37F)”: the Michaelis constant (Km) was found to be 8.48 ± 1.03 mM, the catalytic constant (kcat) amounted to 0.052 ± 0.00367 s⁻¹ and the catalytic efficiency (kcat/Km) worked out at 5.67 M⁻¹ s⁻¹.
